This note sets out measurements from patent US20200354406A1 (Bicycle, published 2020).

What all share (test): cell-based or functional assay
The target of assay [1] is T1, OX40 on OX40 Jurkat reporter cells (Promega CS197704) (UniProt P43489 29-277, limits assumed).
T1 sequence (looked up): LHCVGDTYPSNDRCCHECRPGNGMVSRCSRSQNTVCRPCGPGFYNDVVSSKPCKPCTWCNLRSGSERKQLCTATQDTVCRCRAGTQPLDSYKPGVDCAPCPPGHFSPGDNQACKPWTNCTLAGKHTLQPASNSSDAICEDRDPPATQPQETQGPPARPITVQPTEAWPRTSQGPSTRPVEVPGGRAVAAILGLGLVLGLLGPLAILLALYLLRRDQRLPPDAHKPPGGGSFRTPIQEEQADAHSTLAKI

Assay [2] has as its target T1, OX40 on OX40 Jurkat reporter cells …. The source holds these as a separate data set.
The target is the same in assay [3]. The source holds these as a separate data set.

Starred links: 1 amine or outer side, 2 acyl side, 3 side chain; linkers in the order of their positions; H or OH if unused. Positions of bridges follow the written chain, without caps; N, C: chain ends. Non-standard residues stand in square brackets, D forms with d. Chains are numbered I, II in the order given. No end group written: not given here. *: point of attachment. TATA = O=C(CC[*:1])N1CN(C(=O)CC[*:2])CN(C(=O)CC[*:3])C1; 1Nal = N[C@@H](Cc1cccc2ccccc12)C(=O)O; Hyp = O=C(O)[C@@H]1C[C@@H](O)CN1; hArg = N=C(N)NCCCC[C@H](N)C(=O)O; Pent4ynoyl = C#CCCC(=O)*

B1: BCY12019, synthetic tetramer of four BCY11607 [A-(SEQ ID NO: 6)-A-K(Pya)] linked via C-terminal Lys(PYA) to spacer S1A (n = 23) and central hinge moiety A (TET) (peptide)
peptide: ACLYSPCWHPLNDCAK
modifications: linker 2-7-14 via TATA; not fully specified (residue 16); also: tetramer: four BCY11607 monomers clicked via S1A to central hinge A (TET)
Turning to B1, the “agonism in the Promega OX40 cell-activity assay relative to BCY10549 bound to streptavidin” value in assay [1] was approximately 10 fold. Besides, the “EC50 (nM), Promega OX40 cell-activity assay (NF-κB luciferase in OX40 Jurkat cells)” value in assay [2] is 2.6 nM.

B2: BCY12721, Nectin-4:OX40 heterotandem (taken as BCY12708 [Ac-A-(SEQ ID NO: 6)-A-K(Pya)] with a PEG5 derivative of BCY8116) (peptide)
peptide 1: Ac-ACLYSPCWHPLNDCAK(Pent4ynoyl)
peptide 2: CP[1Nal][dD]CM[hArg]DWSTP[Hyp]WC
modifications: linker I:2-I:7-I:14, II:1-II:5-II:15 via TATA; not fully specified; also: heterotandem: chain 1 Lys(Pya) linked to PEG5 derivative of chain 2
On to B2, for which the “EC50 (nM), Promega OX40 cell-activity assay in co-culture with Nectin-4 positive 4T1-D02 tumor cells” value in assay [3] is 0.94 nM.

B3: BCY12141, Nectin-4:OX40 heterotandem of BCY11607 [A-(SEQ ID NO: 6)-A-K(Pya)] and BCY8116-PEG12-N3 (peptide)
peptide 1: ACLYSPCWHPLNDCAK(Pent4ynoyl)
peptide 2: CP[1Nal][dD]CM[hArg]DWSTP[Hyp]WC
modifications: linker I:2-I:7-I:14, II:1-II:5-II:15 via TATA; not fully specified (bridges); also: PEG12 linker attached to chain 2, place not given here
Consider B3, for which the “EC50 (nM), Promega OX40 cell-activity assay in co-culture with Nectin-4 positive 4T1-D02 tumor cells” value in assay [3] turned out to be 0.59 nM.

B4: BCY12967, Nectin-4:OX40 heterotandem of a trifunctional PEG3 derivative of BCY8116 and BCY11607 (peptide)
peptide 1: ACLYSPCWHPLNDCAK(Pent4ynoyl)
peptide 2: CP[1Nal][dD]CM[hArg]DWSTP[Hyp]WC
modifications: linker I:2-I:7-I:14, II:1-II:5-II:15 via TATA; not fully specified (bridges); also: two copies of chain 1 (BCY11607) clicked via Lys(Pya) to the trifunctional PEG3 linker
Turning to B4, the “EC50 (nM), Promega OX40 cell-activity assay in co-culture with Nectin-4 positive 4T1-D02 tumor cells” value in assay [3] stood at 0.83 nM.
